Experimental data reported in PMC3761943 (Cell, 2013).
Blank lines part the entries; values can stand above or below the binder they belong to.

Key:
[1] = target: T1, kinesin-4ΔN (human kinesin-4, aa 733-1232) (human, UniProt O95239 733-1232); test: pull-down
T1 sequence (looked up): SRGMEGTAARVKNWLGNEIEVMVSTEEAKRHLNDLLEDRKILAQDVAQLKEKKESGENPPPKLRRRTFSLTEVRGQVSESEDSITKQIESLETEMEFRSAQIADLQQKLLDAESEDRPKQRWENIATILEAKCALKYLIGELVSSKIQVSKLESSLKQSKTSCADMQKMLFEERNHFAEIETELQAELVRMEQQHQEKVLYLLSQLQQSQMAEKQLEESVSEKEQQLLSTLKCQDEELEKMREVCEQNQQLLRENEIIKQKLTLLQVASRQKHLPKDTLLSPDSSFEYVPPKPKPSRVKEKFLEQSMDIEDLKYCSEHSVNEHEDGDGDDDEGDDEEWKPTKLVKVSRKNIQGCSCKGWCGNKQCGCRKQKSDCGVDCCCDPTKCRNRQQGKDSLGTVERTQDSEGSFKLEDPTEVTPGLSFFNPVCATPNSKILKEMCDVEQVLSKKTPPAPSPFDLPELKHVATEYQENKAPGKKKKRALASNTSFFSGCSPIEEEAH

[2] = target: T2, kinesin-4 (human full-length, unlabeled) (human, UniProt O95239 1-1232); test: TIRF microscopy, end-tag formation on immobilized microtubules
T2 sequence (looked up): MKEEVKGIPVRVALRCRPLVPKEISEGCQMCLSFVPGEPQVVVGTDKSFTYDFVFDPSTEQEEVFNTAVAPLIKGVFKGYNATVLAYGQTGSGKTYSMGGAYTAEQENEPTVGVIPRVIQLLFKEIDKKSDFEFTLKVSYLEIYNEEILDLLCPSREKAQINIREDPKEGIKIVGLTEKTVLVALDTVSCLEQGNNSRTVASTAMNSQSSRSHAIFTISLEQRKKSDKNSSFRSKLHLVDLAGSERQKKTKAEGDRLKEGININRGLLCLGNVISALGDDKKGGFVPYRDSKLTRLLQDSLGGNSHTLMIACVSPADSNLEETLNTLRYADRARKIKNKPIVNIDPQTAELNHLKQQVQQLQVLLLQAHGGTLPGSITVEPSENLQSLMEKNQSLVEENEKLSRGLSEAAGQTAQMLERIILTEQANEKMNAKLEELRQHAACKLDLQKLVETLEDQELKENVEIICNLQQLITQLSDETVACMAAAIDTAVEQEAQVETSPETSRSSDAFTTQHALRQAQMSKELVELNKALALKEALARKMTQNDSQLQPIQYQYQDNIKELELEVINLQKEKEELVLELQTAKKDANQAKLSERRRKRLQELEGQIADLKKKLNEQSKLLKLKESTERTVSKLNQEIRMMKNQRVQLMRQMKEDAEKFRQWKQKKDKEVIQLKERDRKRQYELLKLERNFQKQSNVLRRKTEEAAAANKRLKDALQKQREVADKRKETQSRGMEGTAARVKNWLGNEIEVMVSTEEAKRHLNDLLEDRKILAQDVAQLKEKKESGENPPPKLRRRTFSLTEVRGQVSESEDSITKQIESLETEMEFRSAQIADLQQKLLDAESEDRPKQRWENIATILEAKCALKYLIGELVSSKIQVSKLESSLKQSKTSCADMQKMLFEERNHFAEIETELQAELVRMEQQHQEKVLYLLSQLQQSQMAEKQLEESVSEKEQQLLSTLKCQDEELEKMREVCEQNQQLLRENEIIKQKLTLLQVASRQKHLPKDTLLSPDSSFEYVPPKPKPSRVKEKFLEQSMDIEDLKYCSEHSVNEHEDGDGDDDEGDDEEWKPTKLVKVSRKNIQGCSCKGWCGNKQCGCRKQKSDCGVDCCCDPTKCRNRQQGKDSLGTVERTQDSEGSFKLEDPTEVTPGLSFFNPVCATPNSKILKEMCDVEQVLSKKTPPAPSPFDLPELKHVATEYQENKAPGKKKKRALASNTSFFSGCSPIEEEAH

[3] = target: T3, kinesin-4-GFP (human full-length kinesin-4, GFP-labeled) (human), O95239; test: single-molecule fluorescence intensity analysis; settings: remark: other sources report otherwise
T3 chain: T2 sequence (looked up)

B1: PRC1NSΔC2 (human PRC1, aa 1-117) (domain or fragment, UniProt O43663 1-117, looked up)
chain: MRRSEVLAEESIVCLQKALNHLREIWELIGIPEDQRLQRTEVVKKHIKELLDMMIAEEESLKERLIKSISVCQKELNTLCSELHVEPFQEEGETTILQLEKDLRTQVELMRKQKKER
- Kd [1]: 2300 ± 600 nM

B4: GFP-PRC1 (human full-length PRC1, aa 1-620, GFP-labeled) (natural protein, UniProt O43663 1-620, looked up)
chain: MRRSEVLAEESIVCLQKALNHLREIWELIGIPEDQRLQRTEVVKKHIKELLDMMIAEEESLKERLIKSISVCQKELNTLCSELHVEPFQEEGETTILQLEKDLRTQVELMRKQKKERKQELKLLQEQDQELCEILCMPHYDIDSASVPSLEELNQFRQHVTTLRETKASRREEFVSIKRQIILCMEALDHTPDTSFERDVVCEDEDAFCLSLENIATLQKLLRQLEMQKSQNEAVCEGLRTQIRELWDRLQIPEEEREAVATIMSGSKAKVRKALQLEVDRLEELKMQNMKKVIEAIRVELVQYWDQCFYSQEQRQAFAPFCAEDYTESLLQLHDAEIVRLKNYYEVHKELFEGVQKWEETWRLFLEFERKASDPNRFTNRGGNLLKEEKQRAKLQKMLPKLEEELKARIELWEQEHSKAFMVNGQKFMEYVAEQWEMHRLEKERAKQERQLKNKKQTETEMLYGSAPRTPSKRRGLAPNTPGKARKLNTTTMSNATANSSIRPIFGGTVYHSPVSRLPPSGSKPVAASTCSGKKTPRTGRHGANKENLELNGSILSGGYPGSAPLQRNFSINSVASTYSEFAKDPSLSDSSTVGLQRELSKASKSDATSGILNSTNIQS
- binding result [2]: binds

B5: kinesin-4-GFP (human full-length kinesin-4, GFP-labeled), O95239 1-1232 (natural protein)
chain: T2 sequence (looked up)
- stoichiometry N [3]: 2

B7: PRC1NSΔC3 (human PRC1, aa 1-168) (domain or fragment, UniProt O43663 1-168, looked up)
chain: MRRSEVLAEESIVCLQKALNHLREIWELIGIPEDQRLQRTEVVKKHIKELLDMMIAEEESLKERLIKSISVCQKELNTLCSELHVEPFQEEGETTILQLEKDLRTQVELMRKQKKERKQELKLLQEQDQELCEILCMPHYDIDSASVPSLEELNQFRQHVTTLRETKA
- Kd [1]: 1200 ± 400 nM

B8: PRC1ΔN2SΔC (human PRC1, aa 41-486) (domain or fragment, UniProt O43663 41-486, looked up)
chain: EVVKKHIKELLDMMIAEEESLKERLIKSISVCQKELNTLCSELHVEPFQEEGETTILQLEKDLRTQVELMRKQKKERKQELKLLQEQDQELCEILCMPHYDIDSASVPSLEELNQFRQHVTTLRETKASRREEFVSIKRQIILCMEALDHTPDTSFERDVVCEDEDAFCLSLENIATLQKLLRQLEMQKSQNEAVCEGLRTQIRELWDRLQIPEEEREAVATIMSGSKAKVRKALQLEVDRLEELKMQNMKKVIEAIRVELVQYWDQCFYSQEQRQAFAPFCAEDYTESLLQLHDAEIVRLKNYYEVHKELFEGVQKWEETWRLFLEFERKASDPNRFTNRGGNLLKEEKQRAKLQKMLPKLEEELKARIELWEQEHSKAFMVNGQKFMEYVAEQWEMHRLEKERAKQERQLKNKKQTETEMLYGSAPRTPSKRRGLAPNTPGKAR
- Kd [1]: 1600 ± 110 nM

The remaining binders from weak to strong by Kd [1], led by results:

- Kd [1]: 300 ± 40 nM
B2: PRC1NSΔC4 (human PRC1, aa 1-231) (domain or fragment, UniProt O43663 1-231, looked up)
chain: MRRSEVLAEESIVCLQKALNHLREIWELIGIPEDQRLQRTEVVKKHIKELLDMMIAEEESLKERLIKSISVCQKELNTLCSELHVEPFQEEGETTILQLEKDLRTQVELMRKQKKERKQELKLLQEQDQELCEILCMPHYDIDSASVPSLEELNQFRQHVTTLRETKASRREEFVSIKRQIILCMEALDHTPDTSFERDVVCEDEDAFCLSLENIATLQKLLRQLEMQKSQ

- Kd [1]: 300 ± 30 nM
B3: PRC1NSΔC (human PRC1, aa 1-486) (domain or fragment, UniProt O43663 1-486, looked up)
chain: MRRSEVLAEESIVCLQKALNHLREIWELIGIPEDQRLQRTEVVKKHIKELLDMMIAEEESLKERLIKSISVCQKELNTLCSELHVEPFQEEGETTILQLEKDLRTQVELMRKQKKERKQELKLLQEQDQELCEILCMPHYDIDSASVPSLEELNQFRQHVTTLRETKASRREEFVSIKRQIILCMEALDHTPDTSFERDVVCEDEDAFCLSLENIATLQKLLRQLEMQKSQNEAVCEGLRTQIRELWDRLQIPEEEREAVATIMSGSKAKVRKALQLEVDRLEELKMQNMKKVIEAIRVELVQYWDQCFYSQEQRQAFAPFCAEDYTESLLQLHDAEIVRLKNYYEVHKELFEGVQKWEETWRLFLEFERKASDPNRFTNRGGNLLKEEKQRAKLQKMLPKLEEELKARIELWEQEHSKAFMVNGQKFMEYVAEQWEMHRLEKERAKQERQLKNKKQTETEMLYGSAPRTPSKRRGLAPNTPGKAR

- Kd [1]: 300 ± 60 nM
B6: PRC1NSΔC5 (human PRC1, aa 1-303) (domain or fragment, UniProt O43663 1-303, looked up)
chain: MRRSEVLAEESIVCLQKALNHLREIWELIGIPEDQRLQRTEVVKKHIKELLDMMIAEEESLKERLIKSISVCQKELNTLCSELHVEPFQEEGETTILQLEKDLRTQVELMRKQKKERKQELKLLQEQDQELCEILCMPHYDIDSASVPSLEELNQFRQHVTTLRETKASRREEFVSIKRQIILCMEALDHTPDTSFERDVVCEDEDAFCLSLENIATLQKLLRQLEMQKSQNEAVCEGLRTQIRELWDRLQIPEEEREAVATIMSGSKAKVRKALQLEVDRLEELKMQNMKKVIEAIRVELVQ
